Experiment [1] deals with T1, Gli2-ZF-SNAP (human, UniProt P10070 418-604, Alexa 647 dye on the SNAP tag in the TIRF assays).
T1 construct: Labeled with Alexa 647 for TIRF microscopy; used unlabeled (as far as told) for cryo-EM; also called Gli2-ZF-SNAP-Alexa 647; Gli2-ZF-Alexa 647; not shown: C-terminal SNAP tag
T1 sequence (looked up): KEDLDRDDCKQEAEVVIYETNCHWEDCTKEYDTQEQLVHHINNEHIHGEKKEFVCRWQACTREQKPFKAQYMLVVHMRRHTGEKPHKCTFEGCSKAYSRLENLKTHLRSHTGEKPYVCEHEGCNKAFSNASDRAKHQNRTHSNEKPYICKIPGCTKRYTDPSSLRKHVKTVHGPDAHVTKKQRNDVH
Briefly: TIRF microscopy; 100 nM Gli2-ZF-SNAP-Alexa647 with 100 nM kinesin on microtubules. An excerpt:
(§1) Briefly, fluorescently labeled (Rhodamine/HiLyte-647) and biotinylated microtubule seeds, polymerized with the non-hydrolyzable GTP analog GMPCPP, were immobilized on a glass coverslip through neutravidin-biotin linkages (FIG. 4A). GMPCPP was chosen as it mimics the GTP-form of tubulin present at microtubule ends (Jiang et al., Developmental cell, 49, 711-730. e8 2019). […] A Gli2 control was used to measure non-specific binding of Gli2-ZF to microtubules. Single molecule photobleaching of purified Kif7-DM confirmed that it is a dimer (FIGS. 11A-D).
To address which of the two Gli-interaction sites of Kif7 plays a role in modulating Kif7 microtubule binding, we generated two chimeric proteins where we swapped either the motor and neck-linker (M) or the coiled-coil (CC) domains of Kif7 and Kif27 (Kif7M-Kif27CC and Kif27M-Kif7CC) (FIG. 5E). […] The binding affinity for each of the two Gli interaction sites on Kif7-DM could be determined using BLI (FIG. 12H). We compared the two chimeras to Kif7-DM in TIRF microscopy-based microtubule binding assay. […] Next, we compared how the microtubule binding of the chimeras were regulated by Gli with respect to Kif7-DM.

In experiment [2] the target is T1, Gli2-ZF-SNAP. Briefly: TIRF microscopy; 100 nM Kif7-DM-GFP and 100 nM Alexa-647 labeled Gli2-ZF-SNAP on GMPCPP microtubules. The protocol:
Rhodamine/HiLyte 647 labeled GMPCPP-stabilized microtubules (grey) were immobilized on a PEG-treated glass coverslip (yellow) via neutravidin-biotin linkages (blue & brown respectively). Kif7-DM-GFP (green), Gli2-ZF-SNAP-Alexa 647 (pink) and 1 mM ATP were subsequently added to examine binding of both proteins on microtubules. All proteins for TIRF microscopy assay were purified to >95% purity (FIGS. 11A & 11B). See also FIGS. 11C-11D.
as §1, with “To examine whether the Kif7-Gli interaction described above is sufficient for recruiting Gli to microtubules, we reconstituted Gli and Kif7 on microtubules and examined their activity using an in vitro TIRF microscopy assay. Briefly,” for “Briefly,”

The next experiment has as its target T2, GST-Kif7-CC (460-600aa) (human, UniProt Q2M1P5 460-600).
T2 construct: held on the BLI sensor through the GST tag; also called Kif7 coiled-coil domain; coiled-coil dimerization domain fragment of Kif7; not shown: N-terminal GST tag (HRV protease cleavable, modified pGEX vector)
T2 sequence: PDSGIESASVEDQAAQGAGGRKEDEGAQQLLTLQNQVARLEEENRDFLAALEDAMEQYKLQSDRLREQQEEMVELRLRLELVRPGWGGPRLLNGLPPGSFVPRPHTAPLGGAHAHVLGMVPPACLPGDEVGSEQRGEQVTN
Briefly: BLI association step, GST-Kif7-CC on the sensor, soluble truncation at 125 nM [panel C]. The protocol: Equilibrium dissociation constants Kd (shown in parenthesis) were determined by fitting complete binding curves to Hill equation (See FIG. 10C). See also FIGS. 10A, 10B & 10C. Data is representative trace of a minimum of three repeats.
BLI experiments were performed in an Octet Red 96 instrument (ForteBio). To quantify Kif7-Gli2 binding, Experiments were performed in an assay buffer containing 40 mM TRIS pH7.3, 40 mM KCl, 40 μM ATP 1 mM MgCl₂, 0.12% tween and 0.5 mM TCEP. In the simplest assay, dimeric GST-Kif7-CC at a concentration of 120 nM is immobilized on an anti-GST biosensor chip. Unbound Kif7 is washed away with buffer, and the chips are then dipped into buffer with a range of Gli2-ZF concentrations from 0-1 μM to allow for association of the two proteins. After 300 seconds, they are then moved back into a well with just buffer to allow dissociation for 400 seconds. The equilibrium response of each sensor from three independent repeats at each Gli2 concentration were normalized and plotted against Gli2 concentration and fitted with a Hill function to obtain a Kₜ. […] The assays were also performed with HIS-tagged Kif7-DM and the Kif7-Kif27 chimeric proteins, requiring the use of an anti-penta-HIS biosensor chip, and referencing sensors to account for non-specific binding of Gli2 to the HIS sensor. A flipped assay, using HIS-tagged Gli2 on the sensor and a range of Kif7 concentrations in buffer, was also conducted.

Another experiment concerns the target T3, GST-Kif7-CC-GFP (human, UniProt Q2M1P5 460-600).
T3 construct: also called GST-tagged Kif7-CC-GFP; not shown: N-terminal GST tag; GFP tag, C-terminal by the name
T3 sequence: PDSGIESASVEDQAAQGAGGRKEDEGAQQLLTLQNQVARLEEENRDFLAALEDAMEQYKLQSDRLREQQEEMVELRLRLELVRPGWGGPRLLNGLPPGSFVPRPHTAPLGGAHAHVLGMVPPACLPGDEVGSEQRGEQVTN
Briefly: SDS-PAGE and in-gel GFP fluorescence intensity of the size exclusion fraction holding the Kif7-CC-GFP:Gli2-ZF-GFP complex; confirmed by quantitative anti-GFP western blot. The protocol: To determine the stoichiometry of the complex (whether one Kif7-CC dimer bind one or two molecules of monomeric Gli2-ZF), we used fluorescence intensity analyses. […] The complex was analyzed by two methods. […] Second, quantitative western blot with fluorescently labeled anti-GFP antibody and densitometric analysis independently confirmed the stoichiometry of the complex (FIG. 8F).
The Kif7-CC and Kif7-DM proteins were not amenable to dynamic light scattering analysis and so in order to determine the stoichiometry of the Kif7-Gli2 complexes, we purified GFP-tagged constructs of Kif7-DM, Kif7-CC, and Gli2-ZF. […] After incubation, 200 μL of this mix was injected into a Superdex 200 10/300 GL column. Fractions that contained complexed protein were determined by elution volume shift in the gel filtration chromatogram. Complex containing fractions were boiled and run in SDS-PAGE and quantified in two ways: (1) Scan of an unstained SDS-PAGE gel at 488 nm, and (2) Scan of a Western blot using a directly labeled […] anti-GFP antibody (Santa Cruz). Both methods were quantified using an Amersham™ Typhoon Scanner and ImageJ for intensity analysis.

For experiment [3], the target named is T4, GMPCPP-stabilized microtubules (porcine, UniProt P02554 1-445).
T4 construct: Polymer of tubulin heterodimers; in TIRF partly labeled with X-rhodamine/HiLyte 647 and biotin; also called MT; GMPCPP-microtubule lattice
Briefly: TIRF microscopy, GFP intensity on microtubules, no Gli2-ZF.

T4 sequence (P02554 whole entry): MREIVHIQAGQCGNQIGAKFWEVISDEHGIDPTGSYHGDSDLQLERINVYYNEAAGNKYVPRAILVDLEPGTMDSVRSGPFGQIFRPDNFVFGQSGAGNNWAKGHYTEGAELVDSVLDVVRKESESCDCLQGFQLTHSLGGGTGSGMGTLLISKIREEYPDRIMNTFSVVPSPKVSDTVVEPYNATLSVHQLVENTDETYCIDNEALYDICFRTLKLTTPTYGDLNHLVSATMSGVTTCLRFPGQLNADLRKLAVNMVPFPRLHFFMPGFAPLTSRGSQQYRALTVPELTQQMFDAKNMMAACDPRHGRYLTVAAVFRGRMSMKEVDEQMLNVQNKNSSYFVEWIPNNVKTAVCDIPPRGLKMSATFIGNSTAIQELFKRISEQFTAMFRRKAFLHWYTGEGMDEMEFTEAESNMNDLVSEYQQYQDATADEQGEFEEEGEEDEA

B1: Kif7-DM-GFP (1-543aa) (other)
chain: MGLEAQRLPGAEEAPVRVALRVRPLLPKELLHGHQSCLQVEPGLGRVTLGRDRHFGFHVVLAEDAGQEAVYQACVQPLLEAFFEGFNATVFAYGQTGSGKTYTMGEASVASLLEDEQGIVPRAMAEAFKLIDENDLLDCLVHVSYLEVYKEEFRDLLEVGTASRDIQLREDERGNVVLCGVKEVDVEGLDEVLSLLEMGNAARHTGATHLNHLSSRSHTVFTVTLEQRGRAPSRLPRPAPGQLLVSKFHFVDLAGSERVLKTGSTGERLKESIQINSSLLALGNVISALGDPQRRGSHIPYRDSKITRILKDSLGGNAKTVMIACVSPSSSDFDETLNTLNYASRAQNIRNRATVNWRPEAERPPEETASGARGPPRHRSETRIIHRGRRAPGPATASAAAAMRLGAECARYRACTDAAYSLLRELQAEPGLPGAAARKVRDWLCAVEGERSALSSASGPDSGIESASVEDQAAQGAGGRKEDEGAQQLLTLQNQVARLEEENRDFLAALEDAMEQYKLQSDRLREQQEEMVELRLRLELVRP
notes: Dimer; Used in TIRF, size exclusion and BLI (HIS-tagged, anti-penta-HIS sensor); also called GFP-tagged recombinant dimeric Kif7 protein; GFP-tagged Kif7-DM; not shown: TEV-cleavable N-terminal 6xHis tag and SUMOstar tag; His tag on in the BLI assay, state in other a; GFP tag, C-terminal by the name
In the case of B1, the “fold Gli2-ZF Alexa-647 intensity on microtubules over Gli2 alone” value with Gli2-ZF-SNAP [1] is approximately 9 fold. Also, the “fold increase over background of Gli2 intensity on microtubules” value with Gli2-ZF-SNAP [2] is 3 fold.

B2: ZF1-2 (418-497) (other, human, UniProt P10070 418-497, looked up)
Gli2 zinc-finger truncation: KEDLDRDDCKQEAEVVIYETNCHWEDCTKEYDTQEQLVHHINNEHIHGEKKEFVCRWQACTREQKPFKAQYMLVVHMRRH
notes: One of the three truncations of the group m9; also called Gli2-ZF truncation ZF1-2
With B2, the binding result with GST-Kif7-CC (460-600aa) is “no binding (tested: 125 nM)”.

B3: Gli2-ZF-GFP (other, human, UniProt P10070 418-604, looked up)
chain: KEDLDRDDCKQEAEVVIYETNCHWEDCTKEYDTQEQLVHHINNEHIHGEKKEFVCRWQACTREQKPFKAQYMLVVHMRRHTGEKPHKCTFEGCSKAYSRLENLKTHLRSHTGEKPYVCEHEGCNKAFSNASDRAKHQNRTHSNEKPYICKIPGCTKRYTDPSSLRKHVKTVHGPDAHVTKKQRNDVH
notes: HRV-cleavable N-terminal 6xHis tag in the vector; not shown: C-terminal GFP tag
Turning to B3, the stoichiometry of interaction with GST-Kif7-CC-GFP is 0.5 Gli2-ZF molecules per Kif7-CC chain (1:2, one Gli2-ZF monomer per Kif7-CC dimer).

B4: Kif27M-Kif7CC chimera (other, human)
chain: MEEIPVKVAVRIRPLLCKEALHNHQVCVRVIPNSQQVIIGRDRVFTFDFVFGKNSTQDEVYNTCIKPLVLSLIEGYNATVFAYGQTGSGKTYTIGGGHIASVVEGQKGIIPRAIQEIFQSISEHPSIDFNVKVSYIEVYKEDLRDLLELETSMKDLHIREDEKGNTVIVGAKECHVESAGEVMSLLEMGNAARHTGTTQMNEHSSRSHAIFTISICQVHKNMEAAEDGSWYSPRHIVSKFHFVDLAGSERVTKTGNTGERFKESIQINSGLLALGNVISALGDPRRKSSHIPYRDAKITRLLKDSLGGSAKTVMITCVSPSSSNFDESLNSLKYANRARNIRNKPTVNFSPESDRIDEMEFEIKLLREALQSQQAGVSQTTQINREGSPDTNRIHSLEEQVAQLQGECLGYQCCVEEAFTFLVDLKDTVRLNEKQQHKLQEWFNMIQEVRKAVLTSFRGIGGTASLEEGPQHVTVPDSGIESASVEDQAAQGAGGRKEDEGAQQLLTLQNQVARLEEENRDFLAALEDAMEQYKLQSDRLREQQEEMVELRLRLELVRPGWGGPRLLNGLPPGSFVPRPHTAPLGGAHAHVLGMVPPACLPGDEVGSEQRGEQVTN
notes: range 1-475; not shown: HIS tag (used for BLI); GFP tag
For B4, the “fold binding to microtubules compared to Kif7-DM (GFP intensity)” value in experiment [3] was approximately 3 fold. For the same molecule, in the experiment with Gli2-ZF-SNAP [1], the “fold decrease in Gli recruitment on microtubules compared to Kif7-DM (Alexa-647 intensity per GFP intensity)” value was determined as 2 fold.

The values above are taken from patent US20230374088A1 (GENERAL HOSPITAL, published 2023).
